# Laboratory results published in patent publication CN116143917A (DONGGUAN PENGZHI BIOTECHNOLOGY CO LTD, dated 2023).
# T1: D-二聚体抗原(购自菲鹏)
# T1 chain 1: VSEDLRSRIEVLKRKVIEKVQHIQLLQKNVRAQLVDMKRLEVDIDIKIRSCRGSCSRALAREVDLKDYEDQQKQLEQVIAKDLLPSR
# T1 chain 2: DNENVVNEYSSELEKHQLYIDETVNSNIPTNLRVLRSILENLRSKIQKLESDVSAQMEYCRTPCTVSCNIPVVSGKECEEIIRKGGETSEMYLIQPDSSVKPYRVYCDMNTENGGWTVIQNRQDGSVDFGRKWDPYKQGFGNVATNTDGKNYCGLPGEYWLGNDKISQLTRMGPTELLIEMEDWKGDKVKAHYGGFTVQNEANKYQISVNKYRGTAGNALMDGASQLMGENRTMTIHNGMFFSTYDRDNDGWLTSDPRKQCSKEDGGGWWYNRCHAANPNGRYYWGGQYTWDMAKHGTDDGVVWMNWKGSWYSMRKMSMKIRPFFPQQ
# T1 chain 3: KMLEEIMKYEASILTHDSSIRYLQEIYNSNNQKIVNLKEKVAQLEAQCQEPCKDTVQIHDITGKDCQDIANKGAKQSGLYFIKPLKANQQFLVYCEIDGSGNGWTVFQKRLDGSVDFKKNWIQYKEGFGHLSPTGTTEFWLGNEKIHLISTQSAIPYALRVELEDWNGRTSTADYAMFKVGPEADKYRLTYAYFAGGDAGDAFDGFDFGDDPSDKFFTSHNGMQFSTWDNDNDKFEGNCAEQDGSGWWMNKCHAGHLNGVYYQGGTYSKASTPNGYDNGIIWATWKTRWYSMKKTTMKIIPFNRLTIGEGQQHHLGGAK
# Molecular target: T1, D-二聚体抗原(购自菲鹏)
# Assay: BLI, AMC sensor, antibody immobilised, D-dimer antigen in serial dilution
Kd [nM],koff [s⁻¹],kon [M⁻¹ s⁻¹],Molecule
21.4,0.000132,6170,对照抗体 (antibody)
9.9,0.00545,550000,"14D2RMb-1 (antibody, mouse IgG2a, kappa, Recombinant monoclonal antibody made in CHO cells from hybridoma genes; also called 14D2RMb-1抗体) heavy: QVQLQQSGPELVRPGVSVKISCKGSGYRFTDYSIHWLKQSHAKSLEWIGVISTYSGNPDYNQKFKGKATMTVDQSSSTAYMELARLTSDDSAIYYCSRMNDYYGDYFFDHWGQGTTLIVSSAKTTAPSVYPLAPVCGDTTGSSVTLGCLVKGYFPEPVTLTWNSGSLSSGVHTFPAVLQSDLYTLSSSVTVTSSTWPSQSITCNVAHPASSTKVDKKIEPRGPTIKPCPPCKCPAPNLLGGPSVFIFPPKIKDVLMISLSPIVTCVVVDVSEDDPDVQISWFVNNVEVHTAQTQTHREDYNSTLRVVSALPIQHQDWMSGKEFKCKVNNKDLPAPIERTISKPKGSVRAPQVYVLPPPEEEMTKKQVTLTCMVTDFMPEDIYVEWTNNGKTELNYKNTEPVLDSDGSYFMYSKLRVEKKNWVERNSYSCSVVHEGLHNHHTTKSFSRTPGK light: DVVMTQTPLSLFVDLGDPASISCRSSQSLVHTNGNTYLHWYLQKPGQSPRLLIYKVSNRFSGVPDRFSGSGSGTDFTFKISSVEAEDLGLYFCSQSRHVPLTFGAGTKLELKRADAAPTVSIFPPSSEQLTSGGASVVCFLNNFYPKDINVKWKIDGSERQNGVLNSWTDQDSKDSTYSMSSTLTLTKDEYERHNSYTCEATHKTSTSPIVKSFNRNEC"
